Test results: publication PMC13140594, “Characterization of high affinity IgM and IgG monoclonal antibodies against norovirus variants GII.4 and GII.17” (Protein Science : A Publication of the Protein Society, 2026)

Columns and labels:
Conditions in all cases: both partners purified
[1] = target: T1, norovirus GII.17 P‐domain (Norovirus GII.17, GenBank AKI30060 …, strain); assay: SPR; Biacore 8K; P-domain immobilised on CM5 by amine coupling, antibody as analyte; PBST, 30 uL/min, 180 s association, 600 s dissociation; 1:1 kinetic model
T1 construct: Cloned into a modified pMAL-c6T vector; also called P‐domain of GII.17 strain; norovirus P‐domain GII.17 strain; source: E. coli BL21 (DE3), purified (Ni-NTA Agarose, SEC Superdex 75)
T1 chain: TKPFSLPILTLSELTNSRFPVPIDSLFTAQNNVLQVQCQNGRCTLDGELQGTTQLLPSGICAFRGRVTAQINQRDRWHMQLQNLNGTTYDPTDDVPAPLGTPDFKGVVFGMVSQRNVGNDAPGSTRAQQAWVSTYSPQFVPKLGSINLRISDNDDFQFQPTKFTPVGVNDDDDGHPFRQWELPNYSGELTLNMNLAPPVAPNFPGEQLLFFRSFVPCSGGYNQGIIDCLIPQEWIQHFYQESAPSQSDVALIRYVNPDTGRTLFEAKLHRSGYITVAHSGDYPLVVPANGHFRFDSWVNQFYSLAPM

[2] = target: T1, norovirus GII.17 P‐domain; assay: SPR; Biacore 8K; antibody immobilised, P-domain as analyte; 1:1 kinetic model
[3] = target: T1, norovirus GII.17 P‐domain; assay: SPR; GII.17 P-domain immobilised on CM5 at 458 r.u., antibody as analyte; PBST; 1:1 kinetic model
[4] = target: T1, norovirus GII.17 P‐domain; assay: SPR; GII.17 P-domain immobilised on CM5 at 138 r.u., antibody as analyte; PBST; 1:1 kinetic model
[5] = target: T1, norovirus GII.17 P‐domain; assay: SPR; GII.17 P-domain immobilised on CM5 at 3830 r.u., antibody as analyte; PBST; 1:1 kinetic model
[6] = target: T1, norovirus GII.17 P‐domain; assay: SPR; GII.17 P-domain immobilised on CM5 at 1059 r.u., antibody as analyte; PBST; 1:1 kinetic model
[7] = target: T1, norovirus GII.17 P‐domain; assay: SPR; GII.17 P-domain immobilised on CM5 at 922 r.u., antibody as analyte; PBST; 1:1 kinetic model
[8] = target: T1, norovirus GII.17 P‐domain; assay: SPR; GII.17 P-domain immobilised on CM5 at 4577 r.u., antibody as analyte; PBST; 1:1 kinetic model

B1: 14C2 IgG (antibody, V domains shown)
VH: QAYLQQSGAELMKPGASMRISCKATGYTFSNYWIEWVKQRPGHGLEWIGEILPGGGGTDYNEKFKGKATFTADTSSNTAYMQLSSLTSEDSAVYYCARSTFYGYDGGLYYFPMDYWGQGTSVTVSP
VL: DIVMTQSPAIMSASPGEKVTMTCSTNSSISYMHWYQQKPGTSPKRWIYDTSKLASGVPARFSGSGSGTSYSLTISSMEAEDAATYYCHQRSSYPWTFGGGTKLEIK
notes: variable domain of the heavy chain of 14C2; light chain of 14C2; Mouse IgG2b; also called IgG antibody 14C2; source: mouse hybridoma supernatant, purified (HiTrap Protein G HP, SEC Superdex 200); copies: 2 + 2
Work on B1 yielded a Kd [1] of 0.000921 nM, a koff [1] of 1.07e-07 s⁻¹ and a kon [1] of 116000 M⁻¹ s⁻¹. It also gave a Kd [2] of 1.55 nM, a koff [2] of 0.000129 s⁻¹ and a kon [2] of 82900 M⁻¹ s⁻¹.

B2: 1‐arm IgG (Fab region of IgG antibody 14C2) (Fab, V domains shown)
VH: QAYLQQSGAELMKPGASMRISCKATGYTFSNYWIEWVKQRPGHGLEWIGEILPGGGGTDYNEKFKGKATFTADTSSNTAYMQLSSLTSEDSAVYYCARSTFYGYDGGLYYFPMDYWGQGTSVTVSP
VL: DIVMTQSPAIMSASPGEKVTMTCSTNSSISYMHWYQQKPGTSPKRWIYDTSKLASGVPARFSGSGSGTSYSLTISSMEAEDAATYYCHQRSSYPWTFGGGTKLEIK
notes: Fab region of the heavy chain of 14C2; light chain of 14C2; gene codon-optimised for mammalian cells; also called 14C2 Fab; source: Expi293 cells, purified (Ni-NTA Agarose, SEC Superdex 75); not shown: His tag (inferred from the Ni-NTA purification)
B2 gave a Kd [3] of 241 nM, a koff [3] of 0.00246 s⁻¹ and a kon [3] of 10200 M⁻¹ s⁻¹. The Kd [4] was 170 nM, the koff [4] was 0.0025 s⁻¹ and the kon [4] was 14700 M⁻¹ s⁻¹. For the same binder, the Kd [5] was 135 nM, the koff [5] was 0.0034 s⁻¹ and the kon [5] was 25100 M⁻¹ s⁻¹. The Kd [6] was 204 nM, the koff [6] was 0.00297 s⁻¹ and the kon [6] was 14600 M⁻¹ s⁻¹. It also gave a Kd [7] of 281 nM, a koff [7] of 0.0024 s⁻¹ and a kon [7] of 8550 M⁻¹ s⁻¹. It also gave a Kd [8] of 167 nM, a koff [8] of 0.0026 s⁻¹ and a kon [8] of 15600 M⁻¹ s⁻¹.
